We go through one protein from paper PMC4303762, “Identification of PLXDC1 and PLXDC2 as the transmembrane receptors for the multifunctional factor PEDF” (eLife, 2014).

The data set concerns the molecule itself. As to the kind of experiment: cross-linking; membranes of HEK293 cells transfected with the receptor, in PBS; disulfide bond formation catalysed by 0.5 mM Cu (II) phenanthroline, 5 min; non-reducing and reducing SDS-PAGE, Western blot for the receptor. On the technique in general: Immunoblotting shows a protein as a band on a membrane.

B1: PLXDC1 in membranes of transfected HEK293 cells (copper phenanthroline crosslinking) (receptor, human, UniProt Q8IUK5 19-500, looked up)
chain: LSPQPGAGHDEGPGSGWAAKGTVRGWNRRARESPGHVSEPDRTQLSQDLGGGTLAMDTLPDNRTRVVEDNHSYYVSRLYGPSEPHSRELWVDVAEANRSQVKIHTILSNTHRQASRVVLSFDFPFYGHPLRQITIATGGFIFMGDVIHRMLTATQYVAPLMANFNPGYSDNSTVVYFDNGTVFVVQWDHVYLQGWEDKGSFTFQAALHHDGRIVFAYKEIPMSVPEISSSQHPVKTGLSDAFMILNPSPDVPESRRRSIFEYHRIELDPSKVTSMSAVEFTPLPTCLQHRSCDACMSSDLTFNCSWCHVLQRCSSGFDRYRQEWMDYGCAQEAEGRMCEDFQDEDHDSASPDTSFSPYDGDLTTTSSSLFIDSLTTEDDTKLNPYAGGDGLQNNLSPKTKGTPVHLGTIVGIVLAVLLVAAIILAGIYINGHPTSNAALFFIERRPHHWPAMKFRSHPDHSTYAEVEPSGHEKEGFMEAEQC
notes: human PLXDC1 with its cytoplasmic tail ending in the conserved cysteine; Detected by a Western blot for the receptor; also called the receptor; source: HEK293, transfected, in membrane preparation
As for B1, the stoichiometry N – broadly, a count of units in the complex or per binding partner – turned out to be 2.
